Test results reported in US20240317834A1, “COMPOSITIONS AND METHODS FOR NEUROLOGICAL DISEASES” (CODA BIOTHERAPEUTICS, INC., priority 2020, published 2024).
“Also recorded” adds a separate entry of the source.

Experiments:
Format in all cases: cell-based
Lenti-X 293T cells = test: YFP fluorescence quenching anion reporter plate reader assay of engineered receptors stimulated with acetylcholine or a non-native ligand
In short: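 Lenti-X 293T cells carrying a YFP anion reporter were transiently transfected with channel DNA and assayed the next day in HEPES-buffered ECS at pH 7.2. Ligand (acetylcholine or non-native ligand) was added in NaI-substituted ECS. Percent quench was the mean of the last 10 s relative to the 15 s pre-addition baseline.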

HEK293 cells = test: Whole cell manual patch clamp electrophysiology, ligand-induced currents and EC50 in HEK293 cells
Method: (§1) Using whole cell manual patch clamp electrophysiology in HEK293 cells, rat DRG neurons and rat hippocampal neurons, the EC50 of the various engineered receptors disclosed herein to Ach and non-native ligands was measured using the Hill equation with peak current measurements from escalating doses of ligand. The rheobase shift was also measured in rat DRG neurons, which reflects the efficacy of the receptors. To calculate the rheobase, first, the amount of current that can produce an action potential was determined. Then the ligand was added, followed by a step wise increase in the current injected up to 700 pA.
For manual patch clamp experiments, Cells plated on coverslips were visualized at 10× and 40× on an inverted fluorescence microscope (Olympus). Recordings were made with an Axopatch 200B amplifier and Digidata 1550B (Molecular Devices) at RT using 3-6 MOhm glass patch electrodes (Sutter, BF150-86-10). Unless otherwise stated, recordings were made in extracellular solution (ECS) containing: 140 mM sodium chloride, 4 mM potassium chloride, 1 mM magnesium chloride, 2 mM calcium chloride, 10 mM HEPES, and 10 mM D-(+)-glucose (pH=7.3 with sodium hydroxide, osmolarity=305−315 mOsm). […] Traces were either analyzed in Clampfit (Molecular Devices) or using custom Python code. […]
For dose-response, ligand-induced currents were recorded in voltage clamp mode. […]

rat DRG neurons = test: Whole cell manual patch clamp electrophysiology, ligand-induced currents and EC50 in rat DRG neurons
Method: as §1
For manual patch clamp experiments, Cells plated on coverslips were visualized at 10× and 40× on an inverted fluorescence microscope (Olympus). Recordings were made with an Axopatch 200B amplifier and Digidata 1550B (Molecular Devices) at RT using 3-6 MOhm glass patch electrodes (Sutter, BF150-86-10). Unless otherwise stated, recordings were made in extracellular solution (ECS) containing: 140 mM sodium chloride, 4 mM potassium chloride, 1 mM magnesium chloride, 2 mM calcium chloride, 10 mM HEPES, and 10 mM D-(+)-glucose (pH=7.3 with sodium hydroxide, osmolarity=305−315 mOsm). An 8-line reservoir (AutoMate Scientific) in combination with an 8-channel zero-dead-volume perfusion pencil (AutoMate Scientific) was used for perfusion. Data was acquired using pClamp software (Molecular Devices). Traces were either analyzed in Clampfit (Molecular Devices) or using custom Python code. Plotting and statistics were performed in GraphPad Prism.
For dose-response, ligand-induced currents were recorded in voltage clamp mode. For HEK cell experiments, recordings took place in the normal ECS with a cesium-based internal solution containing: 140 mM cesium chloride, 5 mM potassium fluoride, 2 mM Calcium chloride, 2 mM magnesium chloride, 10 mM HEPES, and 10 mM EGTA (pH=7.2 with cesium hydroxide, osmolarity=290-295 mOsm). […]

B1: CODA806: engineered chimeric LGIC receptor, Y115D, L131Q in SEQ ID NO: 33 (protein)
chain: MRCSPGGVWLALAASLLHVSLQGEFQRKLYKELVKNYNPLERPVANDSQPLTVYFSLSLLQIMDVDEKNQVLTTNIWLQMSWTDHYLQWNVSEYPGVKTVRFPDGQIWKPDILLDNSADERFDATFHTNVQVNSSGHCQYLPPGIFKSSCPMDLKNFPMDVQTCKLKFGSWSYGGWSLDLQMQEADISGYIPNGEWDLVGIPGKRSERFYECCKEPYPDVTFTVTMRRRMGYYLIQMYIPSLLIVILSWISFWINMDAAPARVGLGITTVLTMTTQSSGSRASLPKVSYVKAIDIWMAVCLLFVFSALLEYAAVNFVSRQHKELLRFRRKRRHHKSPMLNLFQEDEAGEGRFNFSAYGMGPACLQAKDGISVKGANNSNTTNPPPAPSKSPEEMRKLFIQRAKKIDKISRIGFPMAFLIFNMFYWIIYKIVRREDVHNQ
modifications: synthetic sequence of chimeric LGIC
Lenti-X 293T cells; 1 nM CNL001, first column
  YFP fluorescence quenching using CNL001: 6.587%
Lenti-X 293T cells; 1 nM CNL001, second column
  YFP fluorescence quenching using CNL001: −5.179%
Lenti-X 293T cells; 1 nM brd
  YFP fluorescence quenching using TC-5619/Bradanicline: 0.92%
Lenti-X 293T cells; 3 nM brd
  YFP fluorescence quenching using TC-5619/Bradanicline: −4.65%
Lenti-X 293T cells; 10 nM CNL001, first column
  YFP fluorescence quenching using CNL001: −2.366%
Lenti-X 293T cells; 10 nM CNL001, second column
  YFP fluorescence quenching using CNL001: −1.272%
Lenti-X 293T cells; 10 nM brd
  YFP fluorescence quenching using TC-5619/Bradanicline: 0.38%
Lenti-X 293T cells; 30 nM brd
  YFP fluorescence quenching using TC-5619/Bradanicline: −8.96%
Lenti-X 293T cells; 30 nM fac
  YFP fluorescence quenching using Facinicline: 41.32
Lenti-X 293T cells; 50 nM CNL001, first column
  YFP fluorescence quenching using CNL001: 2.763%
Lenti-X 293T cells; 50 nM CNL001, second column
  YFP fluorescence quenching using CNL001: 1.995%
Lenti-X 293T cells; 50 nM abt
  YFP fluorescence quenching using ABT-126: −1.81%
Lenti-X 293T cells; 100 nM CNL001, first column
  YFP fluorescence quenching using CNL001: 3.091%
Lenti-X 293T cells; 100 nM CNL001, second column
  YFP fluorescence quenching using CNL001: 1.45%
Lenti-X 293T cells; 100 nM CNL002
  YFP fluorescence quenching using CNL002: −10.03%
Lenti-X 293T cells; 100 nM abt
  YFP fluorescence quenching using ABT-126: −2.61%
Lenti-X 293T cells; 100 nM azd0328
  YFP fluorescence quenching using AZD-0328: 12.15%
Lenti-X 293T cells; 100 nM brd
  YFP fluorescence quenching using TC-5619/Bradanicline: 12.18%
Lenti-X 293T cells; 100 nM fac
  YFP fluorescence quenching using Facinicline: 59.51
Lenti-X 293T cells; 300 nM abt
  YFP fluorescence quenching using ABT-126: −3.78%
Lenti-X 293T cells; 300 nM azd0328
  YFP fluorescence quenching using AZD-0328: 30.92%
Lenti-X 293T cells; 300 nM brd
  YFP fluorescence quenching using TC-5619/Bradanicline: −0.3%
Lenti-X 293T cells; 300 nM fac
  YFP fluorescence quenching using Facinicline: 74.86
Lenti-X 293T cells; 1 uM CNL001, first column
  YFP fluorescence quenching using CNL001: 7.331%
Lenti-X 293T cells; 1 uM CNL001, second column
  YFP fluorescence quenching using CNL001: 9.103%
Lenti-X 293T cells; 1 uM CNL002
  YFP fluorescence quenching using CNL002: −3.33%
Lenti-X 293T cells; 1 uM abt
  YFP fluorescence quenching using ABT-126: −2.6%
Lenti-X 293T cells; 1 uM brd
  YFP fluorescence quenching using TC-5619/Bradanicline: 45.47%
Lenti-X 293T cells; 1 uM tc6987
  YFP fluorescence quenching using TC-6987: 38.83
Lenti-X 293T cells; 10 uM fac
  YFP fluorescence quenching using Facinicline: 78.53
Lenti-X 293T cells; 10 uM tc6987
  YFP fluorescence quenching using TC-6987: 31.59
Lenti-X 293T cells; 30 uM CNL002
  YFP fluorescence quenching using CNL002: 6.96%
Lenti-X 293T cells; 30 uM azd0328
  YFP fluorescence quenching using AZD-0328: 68.65%
Lenti-X 293T cells; 30 uM fac
  YFP fluorescence quenching using Facinicline: 84.45
Lenti-X 293T cells; 500 uM tc6987
  YFP fluorescence quenching using TC-6987: 29.83
Lenti-X 293T cells; acetylcholine 10 uM
  percent quench of YFP fluorescence, 10 uM ach: 9.47%
Lenti-X 293T cells; acetylcholine 100 uM
  percent quench of YFP fluorescence, 100 uM ach: 6.12%
Lenti-X 293T cells; acetylcholine 1 mM
  percent quench of YFP fluorescence, 1 mM ach: −1.56%
Lenti-X 293T cells; acetylcholine 3 mM
  percent quench of YFP fluorescence, 3 mM ach: 17.57%
HEK293 cells
  sensitivity to RG-3487 compared with wildtype nAchRa7 receptor: way more sensitive
HEK293 cells; Ach up to 100 mM, compared with wildtype nAchRa7 receptor, listed as Y115D and L131Q in SEQ ID NO: 33
  sensitivity to acetylcholine, current generated: essentially insensitive; also recorded: almost no current could be generated
Rat DRG neurons; cultured adult rat DRG neurons expressing the receptor, not observed in non-transduced cells
  chloride current on application of RG-3487 (SA-2): generated chloride current in a dose dependent manner
Rat DRG neurons; cultured rat DRG sensory neurons
  sensitivity to RG-3487 compared with wildtype nAchRa7 receptor: way more sensitive
Rat DRG neurons; cultured rat DRG sensory neurons, compared with wildtype nAchRa7 receptor
  sensitivity to acetylcholine: essentially insensitive
